Measured values taken from paper PMC3776355.

Target: Ero1-α(WT), recombinant (human) (UniProt Q96HE7)
Test: SPR

Chain of UniProt Q96HE7 (Q96HE7 24-468): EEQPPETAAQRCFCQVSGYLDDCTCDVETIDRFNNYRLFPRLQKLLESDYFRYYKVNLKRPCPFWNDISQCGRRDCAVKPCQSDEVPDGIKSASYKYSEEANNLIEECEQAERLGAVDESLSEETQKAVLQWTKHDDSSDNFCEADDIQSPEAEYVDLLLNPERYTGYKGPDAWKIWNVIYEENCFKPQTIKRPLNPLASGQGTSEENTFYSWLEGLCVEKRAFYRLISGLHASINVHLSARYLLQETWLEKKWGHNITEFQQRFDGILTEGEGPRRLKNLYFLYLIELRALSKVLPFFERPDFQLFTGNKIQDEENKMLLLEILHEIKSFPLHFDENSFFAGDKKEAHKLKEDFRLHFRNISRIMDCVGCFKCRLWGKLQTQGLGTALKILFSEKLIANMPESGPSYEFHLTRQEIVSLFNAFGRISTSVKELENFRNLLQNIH

Kd: 1.7 µM
Substance: PDI, recombinant (wild type) (from UniProt P07237 18-508) (enzyme)
